Laboratory results as given in US6866851 (WASHINGTON UNIVERSITY, dated 2005).

Biological target: GFRα2-RET receptor complex (cells transfected with GFRα2 and expressing RET)
Assay: cell-based or functional assay

GFRα2-RET reporter activation relative to GDNF: < 30 % of GDNF
B1: PGP-F2ac (His-Flag-PGP-F2ac, from mouse persephin and rat GDNF) (ligand)
chain: ALAHHHHHHDYKDDDDKGSCRLWSLTLPVAELGLGYASEEKVIFRYCAGSCPQEARTQHSLVLARLRGRGRAHGRPCCQPTAFDDDVTFLDDQHHYHILRKHSAAACGC
